Patent publication EP2057188B1
Several values for one entry are separate records, joined by “and”; a condition that tells them apart may be missing. Equal values may be shown once. Read-outs that look alike come from different tables or passages of the source.

Tests used:
[1] = target: T1, GIP Receptor (Rattus norvegicus (Rat)), P43219; assay: cell-based or functional assay
T1 chain: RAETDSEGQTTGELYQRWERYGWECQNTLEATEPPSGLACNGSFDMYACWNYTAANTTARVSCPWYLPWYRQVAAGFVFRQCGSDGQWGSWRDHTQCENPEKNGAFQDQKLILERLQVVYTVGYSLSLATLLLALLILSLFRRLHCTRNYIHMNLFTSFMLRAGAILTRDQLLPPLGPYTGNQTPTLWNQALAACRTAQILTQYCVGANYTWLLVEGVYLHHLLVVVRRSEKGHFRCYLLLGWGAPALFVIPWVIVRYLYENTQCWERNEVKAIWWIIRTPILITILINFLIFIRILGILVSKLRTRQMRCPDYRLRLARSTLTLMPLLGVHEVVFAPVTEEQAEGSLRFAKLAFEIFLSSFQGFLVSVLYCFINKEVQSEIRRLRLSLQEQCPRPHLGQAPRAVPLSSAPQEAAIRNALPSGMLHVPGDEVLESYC

[2] = target: T1, GIP Receptor (Rattus norvegicus (Rat)), …; assay: cell-based or functional assay
[3] = target: T2, human GIP receptor (human), P48546; assay: 125I-GIP displacement, HEK-GIPR
T2 chain: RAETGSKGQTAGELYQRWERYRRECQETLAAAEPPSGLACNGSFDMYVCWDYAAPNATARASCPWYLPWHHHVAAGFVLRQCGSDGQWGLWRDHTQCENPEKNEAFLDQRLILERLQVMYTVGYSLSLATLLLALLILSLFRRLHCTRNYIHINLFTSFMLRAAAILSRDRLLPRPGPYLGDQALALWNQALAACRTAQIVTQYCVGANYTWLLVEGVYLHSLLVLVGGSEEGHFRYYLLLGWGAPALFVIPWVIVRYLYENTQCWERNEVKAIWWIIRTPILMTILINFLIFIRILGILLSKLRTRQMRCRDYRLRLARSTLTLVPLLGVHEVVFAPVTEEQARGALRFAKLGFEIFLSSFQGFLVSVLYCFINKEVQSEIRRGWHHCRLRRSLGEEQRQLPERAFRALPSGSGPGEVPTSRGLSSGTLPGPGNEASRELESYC

[4] = target: T1, GIP Receptor (Rattus norvegicus (Rat)), …; assay: GIP RBA
[5] = target: T1, GIP Receptor (Rattus norvegicus (Rat)), …; assay: GIP RBA, RIN
[6] = target: T2, human GIP receptor (human), P48546; assay: 125I-GIP displacement, HEK-GIPR
[7] = target: T2, human GIP receptor (human), P48546; assay: 125I-GIP displacement, 10 nM analog, HEK-GIPR

YAEGTFISDYSIAMDKIHQQDFVNWLLAQKPSSGAPPPS (modifications not checked) [0601GIP4178]
Cyclase [1]: 96 | Cyclase [2]: 36.2 | IC50 [3]: 0.17 nM

YAEGTFISDYSIAMDKIHQQDFVNWLLAQKPSSGAPPPS (modifications not checked) [0601GIP4252]
IC50 [4]: 5.6 nM | Cyclase [2]: 154

YSDGTFISDYSIAMDKIHQQDFVNWLLAQKPKKIRYS (modifications not checked) [0601GIP4386]
IC50 [5]: 156 nM | GIPR Cyclase [1]: 56

YAEGTFISDYSIAMDKIHQQDFVNWLLAQKPKKIRYS (modifications not checked) [0601GIP4233]
IC50 [3]: 0.21 nM | IC50 [6]: 0.12 nM and 0.41 nM | %Inh 10nM [7]: 89%
